In this assay the target is HdpA^S-LEHHHHHH (HdpA devoid of its N-terminal hydrophobic segment, His-tagged) (Helicobacter pylori strain 26695). Description: crystal structure.

By stoichiometry N is commonly meant the number of molecules, sites or subunits per partner or assembly.

On to “LhiA^S-SAHHHHHH (LhiA devoid of its predicted signal peptide and lipidated cysteine, His-tagged) (natural protein)”, for which the stoichiometry N is 1.

The values above are taken from article doi:10.1101/2025.08.29.672660.
